Measurements reported in paper PMC5041093, “Acidic Residues Control the Dimerization of the N-terminal Domain of Black Widow Spiders’ Major Ampullate Spidroin 1” (Scientific Reports, 2016).

What was measured:
[1] = target: NRN1_(L.h.) variant E114Q (Latrodectus hesperus); experiment: NMR 15N relaxation (T1, T2; rotational correlation time); 15N-labelled E114Q, 22 mM sodium phosphate pH 7.2 without salt, 10% D2O; molecular weight estimated from the rotational correlation time
[2] = target: NRN1_(L.h.) variant E114Q (Latrodectus hesperus); experiment: SEC-MALS; Superdex 200 10/300 GL, 20 mM sodium phosphate pH 7.2 without NaCl, 71.2 μM protein injected; monomer to dimer
[3] = target: the molecule itself; experiment: SEC-MALS; Superdex 200 10/300 GL, 20 mM sodium phosphate pH 6.0 without NaCl, 71.2 μM protein injected; monomer to dimer

NRN1_(L.h.) variant E114Q (domain or fragment)
stoichiometry N [1]: 2
stoichiometry N [2]: 2

B1: amino-terminal domain of Latrodectus hesperus major ampullate spidroin 1, wildtype (domain or fragment)
chain: QANTPWSSKANADAFINSFISAASNTGSFSQDQMEDMSLIGNTLMAAMDNMGGRITPSKLQALDMAFASSVAEIAASEGGDLGVTTNAIADALTSAFYQTTGVVNSRFISEIRSLIGMFAQASANDVYASAGS
notes: non-repetitive amino-terminal domain (NRN1) of major ampullate spidroin 1 (MaSp1), Latrodectus hesperus; also called wtNRN1_(L.h.); NRN1_(L.h.); source: E. coli BL21 (DE3), purified (nickel-NTA, SEC)
stoichiometry N [3]: 2
